Laboratory results published in article PMC2448379.
Where no end group is shown, it is not given here.

T1: S. cerevisiae Pex5p TPR domain (305 aa), Gal4p DNA-binding domain fusion (pAH987) (S. cerevisiae)
T1 sequence (P35056 whole entry, looked up): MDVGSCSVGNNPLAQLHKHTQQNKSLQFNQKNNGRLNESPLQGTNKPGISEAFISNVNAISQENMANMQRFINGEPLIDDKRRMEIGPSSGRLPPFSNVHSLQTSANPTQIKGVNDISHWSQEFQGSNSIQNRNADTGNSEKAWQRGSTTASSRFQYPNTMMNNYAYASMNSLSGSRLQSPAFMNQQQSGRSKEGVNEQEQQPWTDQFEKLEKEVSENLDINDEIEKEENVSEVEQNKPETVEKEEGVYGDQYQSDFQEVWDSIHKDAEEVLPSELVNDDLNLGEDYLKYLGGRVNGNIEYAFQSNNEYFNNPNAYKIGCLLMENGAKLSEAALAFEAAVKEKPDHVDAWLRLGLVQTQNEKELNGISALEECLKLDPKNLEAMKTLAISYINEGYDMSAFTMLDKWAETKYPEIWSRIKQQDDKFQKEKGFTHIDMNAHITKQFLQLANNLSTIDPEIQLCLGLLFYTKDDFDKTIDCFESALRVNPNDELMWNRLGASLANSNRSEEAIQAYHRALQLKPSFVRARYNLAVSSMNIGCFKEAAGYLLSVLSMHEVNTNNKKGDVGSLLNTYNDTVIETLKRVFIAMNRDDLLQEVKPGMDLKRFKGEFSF


Target: C. elegans PEX-5 TPR domain (267 aa), Gal4p DNA-binding domain fusion (pSL8) (C. elegans)
Test: two-hybrid; yeast strain PCY3; Pex5 TPR domain in pGBT9 (Gal4p DNA-binding domain) with Gal4p activation domain-peptide fusions in pGAD GH; b-galactosidase activity measured with O-nitrophenyl-b-D-galactoside on cells grown at 30 C in liquid selective medium; mean of three independent experiments per strain
Settings: scale: nmol O-nitrophenyl-b-D-galactoside hydrolysed/min/mg protein

Binder	b-Galactosidase activity
Gal4p-QRKANGRDRGGWWAKL	631
Gal4p-GKNRGSESHGSARQKL	57.9
Gal4p-SGGVVARAAKM	293
Gal4p-KRVWRRQWSTGRKLKL	3.8
Gal4p-NGMTRSGRQGGGFAKL	352
Gal4p-TWNRETKGLNAVYGKL	90.3
Gal4p-WYGPGPGCCRRRDLKL (cysteine pairing not given here)	4.4
Gal4p-EGLIVMLERGKL	143
Gal4p-RQRELSANALGGLAKL	447

Target: T1, S. cerevisiae Pex5p TPR domain (305 aa), Gal4p DNA-binding domain fusion (pAH987) (S. cerevisiae)
Test: as above
Settings: scale: nmol O-nitrophenyl-b-D-galactoside hydrolysed/min/mg protein

Binder	b-Galactosidase activity
Gal4p-FEWGSQGWTRGRMHML	39
Gal4p-CERSKL [Gal4p-CERSKL]	163
